Source: the DeepSol protein solubility set

Assay: soluble on expression in E. coli; label from the status in PepcDB or PDB records

With “MGSDKIHHHHHHMQNPRRICVADPNHRLSQKRFTRNSRDIFICPDCGCIMADVDFDHDQYESGDYYTMQHKTVQSIEEVWGFRWRYILDQILKINGRSSLLDVGAGNGYFVALASREFSFDASGLEISQEEVQFAADVLNIGLIREDLTQHNLDYDVVTCLNVLEHVVDPQLFLSHLVNRVKPGGLLVITTPNPACIHRKVKGLKNWNMIAPPHHINLFTKESLYILLMRYGLIQLDYQTISTYVNFVRGFDTENLLLRRLFFNLLKIFDLGADHFFIVKKPSQC” as the sequence, how does the “soluble on expression in E. coli” value read?
Its value is “not soluble”.

For “LLPLRGLLVFPTMVLHLDVGRKKSVEALEHAMIDDHYILLAAQKEISIDEPIETDIYQIGTYAKVKQMLKLPNGTIRVLVEGLQRAKIEKYVANDAFIEVEMCTLPEDDEDNATENKALMRNVLQLFEQYIKLSKKVSAETLASVSDIAEPGRLADVIASHLPLKIVEKQQLLETTSVKERLLQV”, which “soluble on expression in E. coli” value is on record?
The value was “soluble”.

For “MRDNASLAHTQWNCKYHIVFVPKYRRQVIYGKIKKDIGQILRKLCEMKGVEIIEASLCPDHIHMLVSIPPKISVSSFMGYLKGKSSLMIFDRHANLKYKYGNRHFWCRGYYVDTVGRNRKAIEQYIRRQLQEDIASDQISLNEYIDPFTGERVNKSKK”, which “soluble on expression in E. coli” value is on record?
The value was “soluble”.

Which “soluble on expression in E. coli” value does the source give for “QIYSARYSGVDVYEFIHSTGSIMKRKKDDWVNATHILKAANFAKAKRTRILEKEVLKETHEKVQGGFGKYQGTWVPLNIAKQLAEKFSVYDQLKPLFDF” here?
The value was “soluble”.

With “MGSDKIHHHHHHMADNTDNLNSFRALALQVTCHAVNQATDRHEARSLMQNSINRLAQQIAASIAFIGFDCRLIVLPEYFLTGFPMGDSLAGWAEKACIEMAGAEYEALGKIAQKHKIFLAGNAYEVDPNFPGLYFQTCFILDPSGSIVLRYRRLNSLFAPTPHDVWDKYLDCYGLEGVFPVAKTAIGNLAALASEEILYPEVARCLAMRGAEIFVHSTSEVYNKNLTPKDAAKITRAVENMAYVVSANTAGIANIAIPIASADGGSKIIDHRGIVLAETGAGESMAAFAEIDLGALRRDRRRPGLHNLLARQRFELYAESYHQSHFYPANTMLEGEIDRKHFLQTQQATIDRLAQLGII” as the sequence, how does the “soluble on expression in E. coli” value read?
The value was “not soluble”.

Which “soluble on expression in E. coli” value does the source give for “MGSDKIHHHHHHMDNVPEPSSEKFRAYRQKLLDQLETSSQGERHRAQYELELMRNSHFVKVGGLLHHYHDSGPENPRGTVLLIHGWDCWWMWWHRIIRELNAAGYRTVAYDMKGHGWSENDPENRYQIADFVRDLDELIRAIGLKDLHIAAFSFGPFVALDYVNTYPNSVRSMVFFNFGYLPNSEFISKVAPATIIFIFNIMMRKLTWWLPAYIFARLVLSRNSVMMHDIKVGFESLGFCASEAIEQTAQQITAMETTQMLPDMVRAVRVPILFAAGEGDVIMTCENARKLQEMTPSGSYLCVPDCGHLITLELPQTAAEIVLQHISSNS” here?
The value was “not soluble”.

With “MGSDKIHHHHHHMIHVGTCGFCEAREKYFKDFDAVEVQQTFYKVLQEKTLERWRKKAPEEFTFSIKAFQGVTHPSNSPTWRRSNVKPSKNVGLLRPTNEVLHYWRITLKEAKVLGARFILIQLPRSFKEGEESFENAEKFFNAIDRGDFEIGVELRGWSEKGVKRFVREFDVIDVTDPLLRIPLHKGSVNYYRLHGKYEGGKIIYNHSYSDEELKKIRERVLGWNVEESFVFFNNTSMCRDAKRFKLILDLH” as the sequence, how does the “soluble on expression in E. coli” value read?
The value was “not soluble”.

With “PTTRGYGETRGIVKENGLHTVCEEAGCPNIGECWDKKHATFMIMGDTCTRACAFCNVKTGMPGALDANEPAYVAEATRKLGLQHLVITSVDRDDLADGGAAHFAATIRAVREACPTTTIEILTPDFLRKDGALEVVVAAKPDVFNHNLETVPSRYLSVRPGARYFHSIRLLQRVKELDPSIFTKSGIMVGLGEERHEVLQVMDDLRSAEVDFLTIGQYLQPTRKHHAVMRYVTPDEFAGYQTTAYAKGFLMVSASPMTRSSHHAGDDFAKLKAA” as the sequence, how does the “soluble on expression in E. coli” value read?
The value was “not soluble”.

Which “soluble on expression in E. coli” value does the source give for “MNVINETANVLKLETGSVTSAKGFSAVGIHTGVKRKRKDLGAIVCEVPASSAAVYTLNKVQAAPLKVTQESIAVEGKLQAMIVNSGIANACTGKRGLDDAYTMRAVGAETFHIPEHYVAVTSTGVIGEFLPMDVITNGIRQLKPEATIEGAHAFNEAILTTDTVEKHTCYQTIVNGKTVTVGGVAKGSGMIHPNMATMLSFVTTDANIDHGHLQGALSAITNETFNRITVDGDTSTNDMVVVMASGLAENEALTPEHPDWANFYKALQLACEDLAKQIARDGEGATKLIEVEVTGAANDQEAGMVAKQIVGSDLVKTAIYGADANWGRIICAIGYSGCEVNQETIDIAIGPIVTLKQSEPTGFSEEEATAYLKEADPVKISVNLHIGNGTGKAWGCDLTYDYVRINAGYRTLEHHHHHH” here?
The value was “not soluble”.

With “GKTMKMRKFTIADASLERSPGQEADISVGNLVDERHGGPITIGYGRYAPGQSLTETMAVDDVMIVLEGRLSVSTDGETVTAGPGEIVYMPKGETVTIRSHEEGALTAYVTYPHWRPAHA” as the sequence, how does the “soluble on expression in E. coli” value read?
Its value is “soluble”.

Which “soluble on expression in E. coli” value does the source give for “MLKVSDLLTLEELPGITLVAGHKNQDQPILKVNILENPDILDWLTAGELLLTTGYIFKDDRKLQKNFLKELAKHHCAALGFKTQRYFEEVPPDLIKLADEMNVPILAIPYNYTFSQIADVLKSRVTLEQFDMNAQETALHNKIYQILETGSSSFHLLQDLAETIQNPVLLLNDHFEGVNFFDLPKNPIRISSILEDRQETSEFQKQLLEQSHPLLRFYQEPIHLQLKLQNQVVPIEIYPIKKKNVILYYLLVWNTLAPLRPVDVAHFKITAHYLLLQLQLEYSRKFEEYQQRNELFFKLFAHEKRDQAVFQQFQQYYRLAIDKPYAILLISLTLNERQRQERMSILGNQLNQVILGDKQKIVCIEIDSSFVLLVENPPEKEGDYLKMMQRLAQSSINQLMKVQEDVELFLTIGPKIQGLTQIHESYQQAIDVLAFQRQFVAEKPEMRIASYSNFHFRQTLQRYFLEEGQATLRKKYLQPLQKSDQQQHTDFVHTLNVYFQSKRNLSQTAKKLFIHRNTLLQRLEKIEQLVLLDFDKEVDLLALEVALFVGT” here?
Its value is “not soluble”.

Which “soluble on expression in E. coli” value does the source give for “MSNNTKRVGSQTIELKSKPRIIATYSVVGPREGQGPLKEYFDKILQDDCNGCESFEKAESSLMITAIEGVIKKGNVKEEDVDYLFSGDLLNQLTSTNFVAREFKIPFFGVYGACSTMAESLSLSSMIMDGDFAKYAIASTSSHFSSAERQFRFPLEYGCQRKEYSQWTVTGSGAMLLGKSGDYPYVTHVTTGIVKDYGIKDADNMGAAMAPAAVDTIYKHFVDTGRKPEDYDVIATGDLGAVGKKLTEELLKEYGYDISKVYIDCGEKIFDNEKQGTFAGGSGCGCSAVVACGYLYRMLKEKKLKRVLLVSTGALLSSTSALQGESIPGIAHAVAIEYILEHHHHHH” here?
The value was “soluble”.

Which “soluble on expression in E. coli” value does the source give for “MEFNLSALGSAPAAEETYDVVIIGGGPAGLTAGIYAGRAQLKTVIVEKGLPGGQIAQTDEVENYPGFPEGISGPELASRMVRQAEKFGARIVMDEVLGLEKAEGGYLVRGYERNYRARAVIVATGANPRRLGVPGEDKFYGRGVSTCATCDGFFYRDKEVVVVGGGDAAVEEGIFLTKFARKVTLVHRRDELRANKVAQKRAFQNPKMHFLFSHVVTEILGEDQVTGVRLKNLKTGEEYVYPTDGVFVFIGHEPNTAFLKGVVELRPDGYIAVRDEVFTSEPGIFAAGDVADPIYRQLTTSVGAGTRAAMMAERYLAEEAEKVKG” here?
Its value is “soluble”.

With “MAHHHHHHMGRVRHGATICSAVSDATAGKQKSACVTDVEEIPTLSFLSSKSILSETVDRTIEVCDALLNEIPKAKSIKEKHDLIDSTSNVLCLLLDPCEFVRQVHPDAEYKQHASYAFQKGYEYMSKVNSRRDLYDVVLQLDSTEGHKELSSEEIKNVAQLRRDMESNGIHLPDKLREKVTEMNIEKEELAMRFLTEQGSKNPFATLRYLLQCRYELSQLLGFESFAEQQLRGTMLENQQRVWHFLCGIAHKYRREAEKEMDIIRSNVGEVRNRQNITDDVRARVAHSLRRDAEPETAAEYFSVANCIRGIQCLCLEVFGVRLEEVQFDKDEIFNNDAKKYHVYDENKAFLGVIVLDLYASEMKYCQAGHLTLQLGCIPHQEALAKVGLKLPKRQYPVVVLTCNVGACSPVQRLPNGRFDDESTLMHPNEVTTVFHEFGHAMHTIFGQTKVQNLAGTRASIDFVETFSQLFEQFLTSHEFLQLWAHRISTREPISFDMVMKRNAAADMFKHLDMMDQVVLSAVDQTLHGPQPYTVYFPRGDQGNLGKRTLGDIGDYGRGTYNLAKVLIDICTPLSIVTPTETGVLGTLSFEHLSGYPAGYYGYLYSLSIARRIWAKKFMKDPLNRDAGRELVQKVMRHGAACNPVDVIENYLEDKLDEIDIWV” as the sequence, how does the “soluble on expression in E. coli” value read?
The value was “not soluble”.
